B1: AT12-007 (antibody, V domains shown)
VH: QVQLEQSGAEVKKPGASVKVSCKVSGYTLTELSMHWVRQAPGKGLEWMGSFDPADGERLYAQKFQGRVIMSEDTSTDTAYMELSSLRSEDAAVYYCATAPRMTMFGVIMALDSWGQGTLVTVSS
VL: DIQMTQSPSTLSASLGDRVTITCRASQNINKYLAWYQQKPGKAPKLLIYKASNLQSGVPSRFSGSGSGTDFILTISSLQPDDFATYYCQQYTTYSAWTFGQGTNVDIKR
B2: AT12-010 (antibody, V domains shown)
VH: QLQLVQSGAEVKKPGSSVKVSCKASGGTFTSYAINWVRQVPGQGLEWMGEISPVFGTTHYAQKFQGRLKITADESADTAYMELSSLRSDDTAVYYCGRDRAPRLCSGGRCHSPPDHWGQGTLVTVSS
VL: DIQMTQSPSSVSASVGDRVTITCRASQGFGNWLAWYQQKPGRAPKLLIFGASTLQNGVPSRFSGSASGTDFTLTITSLQPEDFATYYCLQTNTFPYTFGQGTKVEIKR

Tests used:
[1] = biological target: E1E2 of HCV isolate AMS.2b.20876551.kloon21 (genotype 2b) (Hepatitis C virus genotype 2b); assay: cell-based or functional assay
[2] = biological target: E1E2 of HCV isolate H77 with single mutation T435A (Hepatitis C virus genotype 1a, strain …, UniProt P27958 192-383; P27958 384-746); assay: ELISA, GNA-captured E1E2 lysate; EC50 wild type / EC50 mutant
[3] = biological target: E1E2 of HCV isolate H77 with single mutation W616A (Hepatitis C virus genotype 1a, strain …, UniProt P27958 192-383; P27958 384-746); assay: as above
[4] = biological target: E1E2 of HCV isolate H77 with single mutation F442A (Hepatitis C virus genotype 1a, strain …, UniProt P27958 192-383; P27958 384-746); assay: as above
[5] = biological target: E1E2 of HCV isolate H77 with single mutation S424A (Hepatitis C virus genotype 1a, strain …, UniProt P27958 192-383; P27958 384-746); assay: as above
[6] = biological target: E1E2 of HCV isolate H77 with single mutation A439G (Hepatitis C virus genotype 1a, strain …, UniProt P27958 192-383; P27958 384-746); assay: as above
[7] = biological target: E1E2 of HCV isolate H77 with single mutation G436A (Hepatitis C virus genotype 1a, strain …, UniProt P27958 192-383; P27958 384-746); assay: as above
[8] = biological target: E1E2 of HCV isolate H77 with single mutation Y443A (Hepatitis C virus genotype 1a, strain …, UniProt P27958 192-383; P27958 384-746); assay: as above
[9] = biological target: E1E2 of HCV isolate H77 with single mutation W529A (Hepatitis C virus genotype 1a, strain …, UniProt P27958 192-383; P27958 384-746); assay: as above
[10] = biological target: E1E2 of HCV isolate H77 with single mutation T526A (Hepatitis C virus genotype 1a, strain …, UniProt P27958 192-383; P27958 384-746); assay: as above
[11] = biological target: E1E2 of HCV isolate H77 with single mutation D535A (Hepatitis C virus genotype 1a, strain …, UniProt P27958 192-383; P27958 384-746); assay: as above
[12] = biological target: E1E2 of HCV isolate H77 with single mutation N415A (Hepatitis C virus genotype 1a, strain …, UniProt P27958 192-383; P27958 384-746); assay: as above
[13] = biological target: E1E2 of HCV isolate H77 with single mutation G530A (Hepatitis C virus genotype 1a, strain …, UniProt P27958 192-383; P27958 384-746); assay: as above
[14] = biological target: E1E2 of HCV isolate H77 with single mutation R657A (Hepatitis C virus genotype 1a, strain …, UniProt P27958 192-383; P27958 384-746); assay: as above
[15] = biological target: E1E2 of HCV isolate H77 with single mutation L441A (Hepatitis C virus genotype 1a, strain …, UniProt P27958 192-383; P27958 384-746); assay: as above
[16] = biological target: E1E2 of HCV isolate H77 with single mutation Y485A (Hepatitis C virus genotype 1a, strain …, UniProt P27958 192-383; P27958 384-746); assay: as above
[17] = biological target: E1E2 of HCV isolate H77 with single mutation Y527A (Hepatitis C virus genotype 1a, strain …, UniProt P27958 192-383; P27958 384-746); assay: as above
[18] = biological target: E1E2 of HCV isolate H77 with single mutation D698A (Hepatitis C virus genotype 1a, strain …, UniProt P27958 192-383; P27958 384-746); assay: as above
[19] = biological target: E1E2 of HCV isolate H77 with single mutation L413A (Hepatitis C virus genotype 1a, strain …, UniProt P27958 192-383; P27958 384-746); assay: as above
[20] = biological target: E1E2 of HCV isolate H77 with single mutation G418A (Hepatitis C virus genotype 1a, strain …, UniProt P27958 192-383; P27958 384-746); assay: as above
[21] = biological target: E1E2 of HCV isolate H77 with single mutation W420A (Hepatitis C virus genotype 1a, strain …, UniProt P27958 192-383; P27958 384-746); assay: as above

Binder	IC50, HCVpp neutralization [1] [µg/mL]	IC90, HCVpp neutralization [1] [µg/mL]	relative binding, mutant vs wild type [2] [%]	relative binding, mutant vs wild type [3] [%]	relative binding, mutant vs wild type [4] [%]	relative binding, mutant vs wild type [5] [%]	relative binding, mutant vs wild type [6] [%]	relative binding, mutant vs wild type [7] [%]	relative binding, mutant vs wild type [8] [%]	relative binding, mutant vs wild type [9] [%]	relative binding, mutant vs wild type [10] [%]	relative binding, mutant vs wild type [11] [%]	relative binding, mutant vs wild type [12] [%]	relative binding, mutant vs wild type [13] [%]	relative binding, mutant vs wild type [14] [%]	relative binding, mutant vs wild type [15] [%]	relative binding, mutant vs wild type [16] [%]	relative binding, mutant vs wild type [17] [%]	relative binding, mutant vs wild type [18] [%]	relative binding, mutant vs wild type [19] [%]	other results
B1	0.26	9.41	84	< 10	< 10	34	67	35	< 10	< 10	31	15	115	< 10	116	< 10	114	24	103	187	relative binding, mutant vs wild type [20]: 130%; relative binding, mutant vs wild type [21]: 87%
B2	0.61	20.4	47	< 10	< 10	16	45	< 10	< 10	< 10	29	5	117	< 10	99	< 10	107	19	86	217	relative binding, mutant vs wild type [20]: 203%; relative binding, mutant vs wild type [21]: < 10%
